Changes are numbered by the printed parent chain.
B1: Fab 4079 (Fab, V domains shown)
VH: EVQLVESGGGLVQPGGSLRLSCAASGFTFTGYWIHWVRQAPGKGLEWVGRIRSKTDGYTTEYAAPVKGRFTISRDNSKNTLYLQLNSLRAEDTAVYYCARLGGHWYFDVWGQGTLVTVSS
VL: DIQLTQSPSSLSASVGDRVTITCRASQSIGRYLNWYQQKPGKAPKLLIYDASNLETGVPSRFSGSGSGTDFTLTISSLQPEDFATYYCEQPLELPRTFGQGTKVEIKR
notes: Fab from E. coli; also called VH5/VL5
B2: Fab 5349 (Fab, V domains shown)
VH: EVQLVESGGGLVQPGGSLRLSCAASGYSITSGHYWAWIRQAPGKGLEWVSAISGSGSSTYYADSVKGRFTISRDNSKNTLYLQLNSLRAEDTAVYYCARGGSDTVLGDWFAYWGQGTLVTVSS
VL: DIQLTQSPSSLSASVGDRVTITCRASQGISSSLAWYQQKPGKAPKLLIYDASNLETGVPSRFSGSGSGTDFTLTISSLQPEDFATYYCQQGYSTWTFGQGTKVEIKR
notes: Fab from E. coli; also called VH24/VL24
B3: Fab 4137 (Fab, V domains shown)
VH: EVQLVESGGGLVQPGGSLRLSCAASGYSITSGYYWGWIRQAPGKGLEWVSGISGSGSSTYYADSVKGRFTISRDNSKNTLYLQLNSLRAEDTAVYYCARGTYSFDVWGQGTLVTVSS
VL: B2 VL with S32D, D50A, N53T, E55Q, T56S, G91Y, T94Y, W95I
notes: Fab from E. coli; also called VH7/VL7
B4: Fab 4134 (Fab, V domains shown)
VH: EVQLVESGGGLVQPGGSLRLSCAASGYSISSGHHWGWIRQAPGKGLEWVSGISGYGDTTYYADSVKGRFTISRDNSKNTLYLQLNSLRAEDTAVYYCARDPYSSGSGYFDYWGQGTLVTVSS
VL: B2 VL with S32A, A34G, D50A, N53S, E55Q, T56S, G91S, S93Y
notes: Fab from E. coli; also called VH6/VL6
B5: Fab 4076 (Fab, V domains shown)
VH: EVQLVESGGGLVQPGGSLRLSCAASGYSITSGYHWGWIRQAPGKGLEWVSAISGAGGSTYYADSVKGRFTISRDNSKNTLYLQLNSLRAEDTAVYYCARDGYGGSYFDYWGQGTLVTVSS
VL: B2 VL with R24Q, G28D, S31T, S32F, N53S, T56S, G91A, T94I
notes: Fab from E. coli; also called VH4/VL4
B6: Fab 7097 (Fab, V domains shown)
VH: B2 VH with T30S, Y34H, A36D, A51Y, S55A, S57D, S58T, G100E, T104A
VL: B1 VL with S28G, G30S, R31S, N34A, E89Q, P91Y, L92Y, E93S, L94T, R96L
notes: Fab from E. coli; also called VH49/VL49
B7: Fab 5346 (Fab, V domains shown)
VH: EVQLVESGGGLVQPGGSLRLSCAASGFSLSTGGVGVGWIRQAPGKGLEWVSGISGYGSTTYYADSVKGRFTISRDNSKNTLYLQLNSLRAEDTAVYYCAREGSDAVAGDWFDYWGQGTLVTVSS
VL: B2 VL with G28D, S30R, S32Y, L54R, E55A, V58I, T94I
notes: Fab from E. coli; also called VH22/VL22
B8: Fab 5407 (Fab, V domains shown)
VH: B7 VH with G16A, G37A, G52S, A107L, D112G
VL: B2 VL with R24Q, G28D, S30T, S31T, S32Y, L54R, E55A, V58I, S93Y, T94L
notes: Fab from E. coli; also called VH35/VL35
B9: Fab 5363 (Fab, V domains shown)
VH: B2 VH with T30S, A36T, T104A
VL: B2 VL with I29V, S30G, S32Y, S93Q, T94L
notes: Fab from E. coli; also called VH29/VL29
B10: Fab 5417 (Fab, V domains shown)
VH: B7 VH with G32S, G37A, G52S, Y56A, S58G, E101G, D104T, A107T
VL: B2 VL with S31P, S32Y, L54R, E55A, V58I, T94L
notes: Fab from E. coli; also called VH39/VL39
B11: Fab 3760 (Fab, V domains shown)
VH: EVQLVESGGGLVQPGGSLRLSCAASGFTFTSYGIHWVRQAPGKGLEWVSGISGAGDTTYYADSVKGRFTISRDNSKNTLYLQLNSLRAEDTAVYYCARERDYDFDYWGQGTLVTVSS
VL: DIQLTQSPSSLSASVGDRVTITCRASQSVSSYLAWYQQKPGKAPKLLIYDASNLETGVPSRFSGSGSGTDFTLTISSLQPEDFATYYCQQSYSTSHTFGQGTKVEIKR
notes: Fab from E. coli; also called VH1/VL1
B12: Fab 7080 (Fab, V domains shown)
VH: B7 VH with G52Y, Y56A, S58G, A105T, A107L, D112A
VL: B11 VL with S28G, V29I, S91Y, S93T, S95P, H96L
notes: Fab from E. coli; also called VH43/VL43
B13: Fab 7159 (Fab, V domains shown)
VH: EVQLVESGGGLVQPGGSLRLSCAASGFSLSTSGVGVGWIRQAPGKGLEWIGDIYHSGSTYYNPSLKSRVTISRDNSKNTLYLQLNSLRAEDTAVYYCAREGSTAVLGDWFAYWGQGTLVTVSS
VL: B11 VL with V29I, A34N, D50A, N53T, E55Q, T56S, S91Y, S95P, H96L
notes: Fab from E. coli; also called VH58/VL58
B14: Fab 7077 (Fab, V domains shown)
VH: B7 VH with G37A, G52Y, Y56S, S58D, A105T, A107V, D112A
VL: B11 VL with S28G, V29I, S91Y, S93T, S95P, H96L
notes: Fab from E. coli; also called VH40/VL40
B15: Fab 7163 (Fab, V domains shown)
VH: B13 VH with G37T, G46S, N62S, T103D, L106A, A111D
VL: B11 VL with V29I, A34N, D50A, N53T, E55Q, T56S, S91Y, S95P, H96L
notes: Fab from E. coli; also called VH59/VL59
B16: Fab 7078 (Fab, V domains shown)
VH: B7 VH with G52Y, Y56D, S58D, A105T, D112A
VL: B11 VL with S28G, V29I, S91Y, S93T, S95P, H96L
notes: Fab from E. coli; also called VH41/VL41
B17: Fab 7087 (Fab, V domains shown)
VH: B7 VH with G52Y, Y56D, S58D, D104T, A107L, D112A
VL: B11 VL with S28G, V29I, S91Y, S93T, S95P, H96L
notes: Fab from E. coli; also called VH45/VL45
B18: Fab 7090 (Fab, V domains shown)
VH: B7 VH with G37A, G52Y, S58G, D104T, A107L, D112A
VL: B11 VL with S28G, V29I, S91Y, S95P, H96L
notes: Fab from E. coli; also called VH47/VL47
B19: Fab 7135 (Fab, V domains shown)
VH: B7 VH with G52S, Y56S, S58G, T59S, A105T, A107L, D112A
VL: B11 VL with S28G, S91Y, S93T, S95P, H96L
notes: Fab from E. coli; also called VH57/VL57
B20: Fab 7081 (Fab, V domains shown)
VH: B7 VH with G52Y, Y56A, S58G, A107L, D112A
VL: B11 VL with S28G, V29I, S91Y, S93T, S95P, H96L
notes: Fab from E. coli; also called VH44/VL44
B21: Fab 7133 (Fab, V domains shown)
VH: B7 VH with G32S, G37A, G52S, S58G, T80R, A105T, A107L, D112A
VL: B11 VL with S28G, S91Y, S93T, S95P, H96L
notes: Fab from E. coli; also called VH56/VL56
B22: Fab 7166 (Fab, V domains shown)
VH: B13 VH with G35A, G37A, S58N, E100G, T103D, A104T, L106V
VL: B11 VL with V29I, A34N, D50A, N53T, E55Q, T56S, S91Y, S95P, H96L
notes: Fab from E. coli; also called VH60/VL60
B23: Fab 7128 (Fab, V domains shown)
VH: B7 VH with G37A, G52Y, Y56D, S58G, A105T, A107L, D112A
VL: B11 VL with S28G, V29I, S95P, H96L
notes: Fab from E. coli; also called VH54/VL54
B24: Fab 7131 (Fab, V domains shown)
VH: B7 VH with G52Y, Y56A, S58D, T59S, A105T, A107L, D112A
VL: B11 VL with S28G, S91Y, S93T, S95P, H96L
notes: Fab from E. coli; also called VH55/VL55
B25: Fab 7109 (Fab, V domains shown)
VH: B7 VH with G32S, G37S, G52Y, Y56S, S58D, A107L, D112A
VL: B11 VL with S28G, V29I, S91Y, S95P, H96L
notes: Fab from E. coli; also called VH52/VL52
B26: Fab 7120 (Fab, V domains shown)
VH: B7 VH with G32S, G52Y, Y56D, S58D, D104T, A105T, A107L, D112A
VL: B11 VL with S28G, V29I, S91Y, S95P, H96L
notes: Fab from E. coli; also called VH53/VL53
B27: Fab 7100 (Fab, V domains shown)
VH: B7 VH with G32S, G52Y, Y56D, S58G, T59S, A105T, A107L, D112A
VL: B11 VL with S28G, V29I, S91Y, S95P, H96L
notes: Fab from E. coli; also called VH50/VL50
B28: Fab 7079 (Fab, V domains shown)
VH: B7 VH with G32S, G37A, G52S, S58G, A105T, A107L, D112A
VL: B11 VL with S28G, V29I, S91Y, S93T, S95P, H96L
notes: Fab from E. coli; also called VH42/VL42
B29: Fab 7105 (Fab, V domains shown)
VH: B7 VH with G52Y, Y56A, A105T, A107L, D112A
VL: B11 VL with S28G, V29I, S91Y, S95P, H96L
notes: Fab from E. coli; also called VH51/VL51
B30: Fab 7092 (Fab, V domains shown)
VH: B7 VH with G32S, V34M, G52Y, S58G, A105V, D112A
VL: B11 VL with S28G, V29I, S91Y, S95P, H96L
notes: Fab from E. coli; also called VH48/VL48
B31: Fab 7088 (Fab, V domains shown)
VH: B7 VH with G32S, G52Y, Y56D, S58G, T59S, D104T, A107V, D112A
VL: B11 VL with S28G, V29I, S91Y, S93T, S95P, H96L
notes: Fab from E. coli; also called VH46/VL46

Biological target: T1, CD137-hisFc fusion protein (Sino Biological Cat 10041-H03H) (human, UniProt Q07011 24-186)
T1 construct: Bought; also called recombinant human CD137 (fused with human Fc and His tag); not shown: His tag and human Fc
Test: BLI Octet, Fab
Description: The Fabs corresponding to the unique hits were expressed in E. coli and purified. Their affinities against human CD137 were measured by ForteBio Octet RED96 Systems. […] The acquired ForteBio data were processed with Data Acquisition software 7.1, and kinetic data were fitted to a 1:1 Langmuir binding model.

Binder | Kd | koff | kon
B1 | 31.5 nM | 0.00219 s⁻¹ | 69300 M⁻¹ s⁻¹
B2 | 6.2 nM | 0.00101 s⁻¹ | 162000 M⁻¹ s⁻¹
B3 | < 0.001 nM | < 1e-07 s⁻¹ | 85600 M⁻¹ s⁻¹
B4 | 13 nM | 0.000769 s⁻¹ | 59300 M⁻¹ s⁻¹
B5 | 7.44 nM | 0.000475 s⁻¹ | 63800 M⁻¹ s⁻¹
B6 | 24.3 nM | 0.0132 s⁻¹ | 542000 M⁻¹ s⁻¹
B7 | 16.1 nM | 0.00977 s⁻¹ | 605000 M⁻¹ s⁻¹
B8 | 1.76 nM | 0.000437 s⁻¹ | 248000 M⁻¹ s⁻¹
B9 | 9.87 nM | 0.000826 s⁻¹ | 83700 M⁻¹ s⁻¹
B10 | 40.4 nM | 0.00231 s⁻¹ | 57200 M⁻¹ s⁻¹
B11 | 12.6 nM | 0.00444 s⁻¹ | 352000 M⁻¹ s⁻¹
B12 | 24.4 nM | 0.00746 s⁻¹ | 306000 M⁻¹ s⁻¹
B13 | 37.9 nM | 0.00403 s⁻¹ | 106000 M⁻¹ s⁻¹
B14 | 18.8 nM | 0.00934 s⁻¹ | 498000 M⁻¹ s⁻¹
B15 | 12.6 nM | 0.00378 s⁻¹ | 299000 M⁻¹ s⁻¹
B16 | 25.2 nM | 0.0087 s⁻¹ | 345000 M⁻¹ s⁻¹

Binder | Kd | koff | kon
B17 | 69.6 nM | 0.00855 s⁻¹ | 123000 M⁻¹ s⁻¹
B18 | 55.5 nM | 0.0173 s⁻¹ | 312000 M⁻¹ s⁻¹
B19 | 31.7 nM | 0.00322 s⁻¹ | 102000 M⁻¹ s⁻¹
B20 | 43.1 nM | 0.0123 s⁻¹ | 287000 M⁻¹ s⁻¹
B21 | 40.3 nM | 0.00405 s⁻¹ | 101000 M⁻¹ s⁻¹
B22 | 12.4 nM | 0.00429 s⁻¹ | 345000 M⁻¹ s⁻¹
B23 | 39.7 nM | 0.0123 s⁻¹ | 309000 M⁻¹ s⁻¹
B24 | 30.4 nM | 0.0081 s⁻¹ | 266000 M⁻¹ s⁻¹
B25 | 32 nM | 0.00555 s⁻¹ | 173000 M⁻¹ s⁻¹
B26 | 34.5 nM | 0.00911 s⁻¹ | 264000 M⁻¹ s⁻¹
B27 | 35 nM | 0.0162 s⁻¹ | 462000 M⁻¹ s⁻¹
B28 | 29.9 nM | 0.003 s⁻¹ | 100000 M⁻¹ s⁻¹
B29 | 33.3 nM | 0.011 s⁻¹ | 330000 M⁻¹ s⁻¹
B30 | 45.7 nM | 0.0197 s⁻¹ | 431000 M⁻¹ s⁻¹
B31 | 43.6 nM | 0.0111 s⁻¹ | 255000 M⁻¹ s⁻¹

Reference: patent US20190055314A1 (ADAGENE, published 2019)
